This note sets out measurements from patent US20190352404A1 (SUZHOU ALPHAMAB, published 2019).

The target of assay [1] is T1, hPD-L1-Fc (human, UniProt Q9NZQ7 20-239, limits assumed).
T1 construct: also called PDL1-Fc fusion protein; human PDL1 protein; not shown: Fc part
Briefly: BLI (Octet K2), hPD-L1-Fc on AHC sensor, sdAb variant in solution; against wild-type KN035.

Assay [2] deals with T1, hPD-L1-Fc. Briefly: competitive ELISA, hPD-L1-Fc coated, competitor hPD-1-hIgG-biotin 10 ug/ml; against wild-type KN035. (In general: In an ELISA, binding on a coated surface is turned into a signal by an enzyme label.)

T1 sequence (Q9NZQ7 other isoform, or with tags, fused parts or gaps limits assumed): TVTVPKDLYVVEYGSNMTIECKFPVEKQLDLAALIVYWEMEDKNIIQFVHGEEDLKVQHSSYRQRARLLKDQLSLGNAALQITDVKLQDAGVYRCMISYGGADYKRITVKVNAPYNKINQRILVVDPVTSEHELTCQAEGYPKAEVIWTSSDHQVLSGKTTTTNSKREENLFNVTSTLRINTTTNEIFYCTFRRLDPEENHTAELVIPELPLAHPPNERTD

B1: KN035 single domain antibody mutant m3 (VHH)
VHH: QVQLQESGGGLVQPGGSLRLSCAASGKMSSRRCMAWFRQAPGKERERVADVNPNSGGSIYNQRFKGRFTISQNNAKSTVYLQMNSLKPEDTAMYYCAADSFEDPTCTLVTSSGAFQYWGQGTQVTVSS
notes: not shown: C-terminal His-tag (obtained 'by the above method')
In turn, B1 came in with a KD/KD wt in assay [1] of 2.01 ratio. For the same molecule, the “Relative blocking activity (EC50 wt/EC50 m × 100%)” value in assay [2] amounted to 91%.

B2: KN035 sdAb mutant 1 (VHH)
VHH: QVQLQESGGGSVQAGGSLRLSCAASGKMSSRRCMGWFRQAPGKERVGVAAIDSDGTTKYADSMKGRFTISKDNAKNTLDLQMNSLKPEDTAMYYCVADSFEDPTCTLVTSSGAFQYRGQGTQVTVSS
notes: Expressed in HEK293, IMAC purified; not shown: C-terminal His-tag
On to B2, for which the KD/KD wt in assay [1] amounted to 1.21 ratio. In addition, the “Relative blocking activity (EC50 wt/EC50 m × 100%)” value in assay [2] is 80%.

B3: KN035 sdAb mutant 2 (VHH)
VHH: QVQLQESGGGSVQAGGSLRLSCAASGKMSSRRCMGWFRQAPGKQRVGVATIDSDGTTRYVDSVKGRFTISKDNAKNTLDLQMNSLKPEDTAMYYCAADSFEDPTCTLVTSSGAFQYRGQGTQVTVSS
notes: not shown: C-terminal His-tag
Turning to B3, the KD/KD wt in assay [1] was 1.73 ratio. Moreover, in assay [2], the “Relative blocking activity (EC50 wt/EC50 m × 100%)” value was 71%.
